This note sets out measurements from US20260070987A1.

Numbering of substitutions follows the chain as printed. Names may count otherwise.

For this test, the target named is equine FcRn (large alpha subunit p51) / equine beta-2-microglobulin complex, biotinylated (equine) (UniProt P30441). In words: SPR (Biacore), pH 6.
UniProt P30441, sequence (P30441 21-118, one chain of several): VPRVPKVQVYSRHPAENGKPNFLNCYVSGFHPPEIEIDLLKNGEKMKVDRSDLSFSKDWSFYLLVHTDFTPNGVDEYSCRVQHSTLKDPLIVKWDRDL

B1: equine IgG1 G426D (antibody, part only; not given: variable domains, not shown: another chain or arm of the molecule)
constant: ASTTAPKVFALAPGCGTTSDSTVALGCLVSGYFPEPVKVSWNSGSLTSGVHTFPSVLQSSGFYSLSSMVTVPASTWTSETYICNVVHAASNFKVDKRIEPIPDNHQKVCDMSKCPKCPAPELLGGPSVFIFPPNPKDTLMITRTPEVTCVVVDVSQENPDVKFNWYMDGVEVRTATTRPKEEQFNSTYRVVSVLRIQHQDWLSGKEFKCKVNNQALPQPIERTITKTKGRSQEPQVYVLAPHPDELSKSKVSVTCLVKDFYPPEINIEWQSNGQPELETKYSTTQAQQDSDGSYFLYSKLSVDRNRWQQGTTFTCDVMHEALHNHYTQKNVSKNPGK
For B1, the Kd is 25.3 nM.

B2: equine IgG1 M428G (antibody, part only; not given: variable domains, not shown: another chain or arm of the molecule)
constant: B1 constant with D316G, M318G
The molecule B2 registered a Kd of 48.8 nM.

B3: equine IgG1 M252Y (antibody, part only; not given: variable domains, not shown: another chain or arm of the molecule)
constant: B1 constant with M140Y, D316G
Regarding B3, the dissociation constant (Kd) was found to be 19.3 nM.

B4: equine IgG1 G426S (antibody, part only; not given: variable domains, not shown: another chain or arm of the molecule)
constant: B1 constant with D316S
B4: the Kd came to 8.97 nM.

B5: equine IgG1 M428L (antibody, part only; not given: variable domains, not shown: another chain or arm of the molecule)
constant: B1 constant with D316G, M318L
As for B5, the Kd is 8.76 nM.

B6: equine IgG1 M428W (antibody, part only; not given: variable domains, not shown: another chain or arm of the molecule)
constant: B1 constant with D316G, M318W
B6 yielded a Kd of 31.9 nM. This Kd is about 3.6-fold higher than that of the molecule before.

B7: equine IgG1 G426E (antibody, part only; not given: Variable domains, not shown: another chain or arm of the molecule)
constant: B1 constant with D316E
As for B7, the Kd came out at 24.1 nM.

B8: equine IgG1 M428F (antibody, part only; not given: variable domains, not shown: another chain or arm of the molecule)
constant: B1 constant with D316G, M318F
Molecule B8 returned a Kd of 17.3 nM.

B9: equine IgG1 G426M (antibody, part only; not given: variable domains, not shown: another chain or arm of the molecule)
constant: B1 constant with D316M
In the case of B9, the Kd worked out at 9.09 nM.

B10: equine IgG1 M428V (antibody, part only; not given: variable domains, not shown: another chain or arm of the molecule)
constant: B1 constant with D316G, M318V
B10 gave a Kd of 65.8 nM. This Kd is about 7.2-fold higher than that of the molecule before.

B11: equine IgG1 G426K (antibody, part only; not given: Variable domains, not shown: another chain or arm of the molecule)
constant: B1 constant with D316K
B11 returned a dissociation constant Kd of 9.3 nM.

B12: equine IgG1 N434E (antibody, part only; not given: variable domains, not shown: another chain or arm of the molecule)
constant: B1 constant with D316G, N324E
In turn, B12 displayed a Kd of 50.6 nM.

B13: equine IgG1 M428T (antibody, part only; not given: variable domains, not shown: another chain or arm of the molecule)
constant: B1 constant with D316G, M318T
Consider B13, for which the Kd worked out at 34.8 nM. The Kd values of the last two molecules are within 1.5-fold of each other.

B14: equine IgG1 M428A (antibody, part only; not given: variable domains, not shown: another chain or arm of the molecule)
constant: B1 constant with D316G, M318A
In turn, B14 displayed a Kd of 76 nM.

B15: equine IgG1 M428Q (antibody, part only; not given: Variable domains, not shown: another chain or arm of the molecule)
constant: B1 constant with D316G, M318Q
In turn, B15 came in with a Kd of 32.9 nM.

B16: equine IgG1 N434A (antibody, part only; not given: Variable domains, not shown: another chain or arm of the molecule)
constant: B1 constant with D316G, N324A
As to B16, the dissociation constant Kd turned out to be 6.54 nM.

B17: equine IgG1 G426Y (antibody, part only; not given: variable domains, not shown: another chain or arm of the molecule)
constant: B1 constant with D316Y
Take B17: the Kd came out at 11.9 nM.

B18: equine IgG1 G426L (antibody, part only; not given: variable domains, not shown: another chain or arm of the molecule)
constant: B1 constant with D316L
In turn, B18 registered a Kd of 9.61 nM.

B19: equine IgG1 M428H (antibody, part only; not given: variable domains, not shown: another chain or arm of the molecule)
constant: B1 constant with D316G, M318H
With B19, the Kd turned out to be 33.1 nM. This Kd lies about 3.4-fold higher than the previous one.

B20: equine IgG1 G426R (antibody, part only; not given: variable domains, not shown: another chain or arm of the molecule)
constant: B1 constant with D316R
B20 had a Kd of 10.3 nM. Compared with the last molecule, the Kd is about 3.2-fold lower.

B21: equine IgG1 G426I (antibody, part only; not given: variable domains, not shown: another chain or arm of the molecule)
constant: B1 constant with D316I
Consider B21, for which the Kd was 9.47 nM.

B22: equine IgG1 M428K (antibody, part only; not given: variable domains, not shown: another chain or arm of the molecule)
constant: B1 constant with D316G, M318K
The molecule B22 gave a Kd of 28.7 nM.

B23: equine IgG1 T286A (antibody, part only; not given: Variable domains, not shown: another chain or arm of the molecule)
constant: B1 constant with T174A, D316G
The molecule B23 returned a Kd of 18.5 nM.

B24: equine IgG1 G426T (antibody, part only; not given: variable domains, not shown: another chain or arm of the molecule)
constant: B1 constant with D316T
In turn, B24 gave a Kd of 9.73 nM.

B25: equine IgG1 G426N (antibody, part only; not given: variable domains, not shown: another chain or arm of the molecule)
constant: B1 constant with D316N
For B25, the Kd was determined as 10.3 nM.

B26: equine IgG1 M428E (antibody, part only; not given: variable domains, not shown: another chain or arm of the molecule)
constant: B1 constant with D316G, M318E
Consider B26, for which the Kd came to 43.9 nM. This Kd is about 4.3-fold higher than that of the molecule before.

B27: equine IgG1 G426H (antibody, part only; not given: variable domains, not shown: another chain or arm of the molecule)
constant: B1 constant with D316H
Take B27: the Kd amounted to 12.8 nM.

B28: equine IgG1 N434C (antibody, part only; not given: variable domains, not shown: another chain or arm of the molecule)
constant: B1 constant with D316G, N324C
On to B28, for which the Kd came out at 42.6 nM.

B29: equine IgG1 G426P (antibody, part only; not given: variable domains, not shown: another chain or arm of the molecule)
constant: B1 constant with D316P
In turn, B29 gave a Kd of 23.9 nM.

B30: equine IgG1 M428N (antibody, part only; not given: Variable domains, not shown: another chain or arm of the molecule)
constant: B1 constant with D316G, M318N
B30 gave a Kd of 51.6 nM.

B31: equine IgG1 T286C (antibody, part only; not given: variable domains, not shown: another chain or arm of the molecule)
constant: B1 constant with T174C, D316G
For B31, the Kd was 35.4 nM. The Kd values of the last two molecules are within 1.5-fold of each other.

B32: equine IgG1 M428Y (antibody, part only; not given: variable domains, not shown: another chain or arm of the molecule)
constant: B1 constant with D316G, M318Y
As for B32, the Kd turned out to be 17 nM.

B33: equine IgG1 G426Q (antibody, part only; not given: variable domains, not shown: another chain or arm of the molecule)
constant: B1 constant with D316Q
With B33, the dissociation constant Kd came to 9.01 nM.

B34: equine IgG1 G426V (antibody, part only; not given: Variable domains, not shown: another chain or arm of the molecule)
constant: B1 constant with D316V
The molecule B34 came in with a Kd of 8.79 nM.

B35: equine IgG1 M428I (antibody, part only; not given: variable domains, not shown: another chain or arm of the molecule)
constant: B1 constant with D316G, M318I
The molecule B35 yielded a Kd of 28 nM. Against the preceding molecule, the Kd is about 3.2-fold higher.

B36: equine IgG1 G426F (antibody, part only; not given: variable domains, not shown: another chain or arm of the molecule)
constant: B1 constant with D316F
Molecule B36 came in with a Kd of 13.1 nM.

B37: equine IgG1 G426W (antibody, part only; not given: variable domains, not shown: another chain or arm of the molecule)
constant: B1 constant with D316W
As to B37, the Kd worked out at 14.7 nM.

B38: equine IgG1 M428C (antibody, part only; not given: variable domains, not shown: another chain or arm of the molecule)
constant: B1 constant with D316G, M318C
For the molecule B38, the equilibrium dissociation constant (Kd) was determined as 47.5 nM. Compared with the last molecule, the Kd is about 3.2-fold higher.
